Legend:
CD4 = molecular target: T1, CD4 (UniProt P01730 26-390); assay: ELISA, coated antigen, anti-HIS HRP detection
T1 construct: also called CD4 (R&D Biotechne 514-CD)
Procedure: (§1) To screen specificity by ELISA, antigens were coated at 1-5 ug/ml and blocked with Marvel milk powder. VH were added at 10 μg/ml and incubated for 1 hour. After washing, HRP-conjugated anti-HIS antibody (Miltenyi cat no. 130-092-785) was added. TMB substrate and acidic solution were used to develop colorimetric signal.

mouse LAG-3 = molecular target: T2, mouse LAG-3 (mouse, UniProt Q61790 24-442); assay: ELISA, coated antigen, anti-HIS HRP detection
T2 construct: The construct is not described; also called mouse LAG-3 (Sino Biological cat no 53069-M02H); Mouse LAG3 (R&D Biotechne cat 3328-L3)
T2 sequence (looked up): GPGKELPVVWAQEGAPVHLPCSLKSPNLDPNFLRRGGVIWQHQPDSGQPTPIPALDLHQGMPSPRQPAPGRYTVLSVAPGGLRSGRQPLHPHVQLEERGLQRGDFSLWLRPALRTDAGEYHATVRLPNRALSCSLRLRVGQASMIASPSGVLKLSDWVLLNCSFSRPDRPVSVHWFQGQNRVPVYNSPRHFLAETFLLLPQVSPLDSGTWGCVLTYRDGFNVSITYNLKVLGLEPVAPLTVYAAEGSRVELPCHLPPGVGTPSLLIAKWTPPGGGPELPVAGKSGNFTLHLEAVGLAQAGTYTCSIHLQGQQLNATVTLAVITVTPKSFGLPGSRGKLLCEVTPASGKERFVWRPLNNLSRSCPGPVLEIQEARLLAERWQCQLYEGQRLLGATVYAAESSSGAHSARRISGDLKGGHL
Procedure: as §1

[1] = molecular target: T3, human LAG-3 expressed on cells (human, UniProt P18627 23-525); assay: flow cytometry (Intellicyte) on anti-CD3/anti-CD28 stimulated human CD4+ T cells; His-tagged VH detected with anti-HIS biotin and streptavidin AlexaFluor488
T3 construct: also called CHO cells expressing human LAG-3; CHO human LAG-3 cells
T3 sequence: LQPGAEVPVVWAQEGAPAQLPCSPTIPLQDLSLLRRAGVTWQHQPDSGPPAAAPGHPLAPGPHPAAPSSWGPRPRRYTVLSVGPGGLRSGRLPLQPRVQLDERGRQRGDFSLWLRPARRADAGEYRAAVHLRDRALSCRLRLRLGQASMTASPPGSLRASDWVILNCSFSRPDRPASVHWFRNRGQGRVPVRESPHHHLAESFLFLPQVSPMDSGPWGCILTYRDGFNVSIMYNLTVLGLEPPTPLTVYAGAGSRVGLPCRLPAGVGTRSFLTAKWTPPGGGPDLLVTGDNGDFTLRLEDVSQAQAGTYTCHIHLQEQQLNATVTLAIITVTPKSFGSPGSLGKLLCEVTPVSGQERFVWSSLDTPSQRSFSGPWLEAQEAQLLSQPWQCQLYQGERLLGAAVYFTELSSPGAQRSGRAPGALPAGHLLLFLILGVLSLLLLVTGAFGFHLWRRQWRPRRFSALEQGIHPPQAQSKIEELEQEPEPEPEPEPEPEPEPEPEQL
Procedure: FIG. 2. CD4+ T cells were stimulated with anti-CD3 and anti-CD28. Cells were stained with HIS tagged VH plus anti-HIS tag labelled with biotin and streptavidin AlexaFluor488. Cells were analysed using Intellicyte® cytometer.
Binding onto human activated T cells was measured by cytometry. PBMC or magnetically isolated T cells were isolated from leukocytes cones and cells were incubated in 96 well plates coated with anti-CD3 (OKT3) at 5 μg/ml. Anti-CD28 (CD28.2) was added at 1 μg/ml in RPMI media and foetal bovine serum. After 72-96 hours, cells were harvested and stained using standard flow cytometry methods. […] Fluorescently labelled anti-CD4 and anti-CD8 were included in PBMC cultures and a live/dead dye. Stained cells were analysed using the IQue cytometer (Intellicyte). EC50 were calculated from the titration curve of median fluorescence of Humabody, gating on CD4+ or CD8+ cells if using mixed cells.

[2] = molecular target: T4, recombinant human PD-1 Fc chimera (human, UniProt Q15116 25-167); assay: Octet bio-layer interferometry; VH (100 nM) first bound to immobilised LAG3-Fc, then PD-1-Fc added
T4 construct: Bought Fc chimera; also called human PD-1 (R&D systems cat no. 1086-PD); PD1 antigen
T4 sequence (Q15116 25-167 limits assumed, change not shown): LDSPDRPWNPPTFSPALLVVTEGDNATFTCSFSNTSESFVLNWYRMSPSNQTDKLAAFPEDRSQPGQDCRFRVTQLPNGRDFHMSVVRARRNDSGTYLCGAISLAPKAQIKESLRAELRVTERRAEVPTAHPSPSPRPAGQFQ
Procedure: Recombinant LAGS-Fc (10 μg/ml) was immobilised by standard amine coupling to amine reactive biosensors in 10 mM sodium acetate at pH6. The binding steps were performed in 0.1% BSA 0.02% Tween20 in PBS. 100 nM of Humabody® were used in the first binding step, followed by binding of human PD1-Fc at 5 μg/ml. The contact time for association and dissociation was 200 seconds.

[3] = molecular target: T5, recombinant human LAG-3-Fc (human, UniProt P18627 23-450); assay: BLI (Octet); human LAG-3-Fc captured on protein G biosensors, 1:1 fit
T5 construct: also called human LAG-3 (R&D Systems cat no. 2319-L3); LAG3 antigen
T5 sequence: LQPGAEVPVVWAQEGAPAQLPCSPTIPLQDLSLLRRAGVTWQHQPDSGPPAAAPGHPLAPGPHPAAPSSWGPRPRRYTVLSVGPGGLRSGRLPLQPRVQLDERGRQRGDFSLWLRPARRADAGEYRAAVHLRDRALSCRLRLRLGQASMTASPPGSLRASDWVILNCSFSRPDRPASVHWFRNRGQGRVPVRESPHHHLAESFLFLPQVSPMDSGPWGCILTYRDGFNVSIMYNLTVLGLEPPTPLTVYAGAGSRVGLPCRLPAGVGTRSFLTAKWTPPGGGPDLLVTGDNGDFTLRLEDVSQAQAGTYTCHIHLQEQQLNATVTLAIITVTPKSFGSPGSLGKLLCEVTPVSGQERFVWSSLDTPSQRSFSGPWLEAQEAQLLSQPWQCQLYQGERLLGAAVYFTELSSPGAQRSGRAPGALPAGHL

[4] = molecular target: T5, recombinant human LAG-3-Fc; assay: competition ELISA; LAG-3-Fc pre-incubated with VH, binding to coated Galectin-3
Excerpt: The plate was blocked with 3% Marvel skimmed milk powder in PBS. […] Wash steps were done 3 times with PBS 0.05% Tween. Colour was developed using TMB and 0.5M sulphuric acid solution.

B1: VH1.1-6GS-VH1.1-His6 (VHH)
chain: EVQLVESGGGVVRPGGSLRLSCSASGFTFDDYGMSWVRQAPGKGLEWVSGIHWNGGNSGYADSVKGRFTISRDNAKNSLYLQMNSLRAEDTALYYCARIPREDCSSASCYTDAIDFWGPGTMVTVSSGGGGSGGGGSGGGGSGGGGSGGGGSGGGGSEVQLVESGGGVVRPGGSLRLSCSASGFTFDDYGMSWVRQAPGKGLEWVSGIHWNGGNSGYADSVKGRFTISRDNAKNSLYLQMNSLRAEDTALYYCARIPREDCSSASCYTDAIDFWGPGTMVTVSSAAAHHHHHH
notes: Tandem fusion of two VH 1.1, bivalent for LAG-3; The entry includes the C-terminal AAA-His6; also called 1.1-6GS-1.1; bivalent 1.1-6GS-1.1
- binding result (CD4): no binding (tested: 10 µg/ml VH)
- binding result (mouse LAG-3): no binding (tested: 10 µg/ml VH)
- EC50 (read off the curve) [1]: ~100 pM
- binding result [2]: no binding
- Kd [3]: 417 pM
- koff [3]: 0.00047 s⁻¹
- kon [3]: 1.13e+06 M⁻¹ s⁻¹
- IC50 [4]: 34000 pM
